Target: GPIIb/IIIa (Homo sapiens, UniProt P08514)
Assay: spectrofluorometry titration

**Q.** PESGRCRGHLRRIYYNLES [RusPep (Rusvikunin-II peptide)] was tested. Which Kd did it give?
**A.** 1.6 µM

— article PMC6549151 (2019)
